# Assay: soluble fraction after stress (log2 fold change); higher = more stays soluble; pooled small domains, quantitative proteomics
# Details: stress: pH 4
# Method in brief: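 Small protein domains from pooled custom libraries were exposed to pH 4, then quantified with high-throughput quantitative proteomics. The fold change in how much of each domain remains soluble is read as aggregation propensity. It is given as log2, with higher values meaning more stayed soluble.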
row,Sequence,soluble fraction (log2)
1,HMLNSLDATQRLKLNKDGVVVFNFGKYVDQSVIDIFKKEKGYYNWMMSKDFSQQVKNIITKIYQEEIIG,-0.0228
2,HMLNTLGADIRALRKARGLTLAELAQTLGRSVGWLSQVERDMSEPGINDLRDLARALDVSISSLFG,-0.366
3,HMLNWINSDVLERFNSLTKEKQKAIVADTETRLNGLSQARFKVAKSSSNERLIAEFAIEINEAIMRAAAL,-0.894
4,HMLPADETEARVLNVLGSEPLHVDEIRNQADLPIEKISATLAMMELKGMVRQVGGMNYVAMR,-0.892
5,HMLPANGEAIYHYLASGAIKGVGPVTAQRIVDKFGEDTFDVLENNPLWLAEIKGITRKTAENIGAAFAAQF,-0.263
6,HMLPDAESFSYEVPYTKGDGGTYNYEGKIKAQNADAARDEIIRQAQVYFQMNPQFTPDYPSTTITSLD,0.0666
7,HMLPDDDMLLNILTKLLIDKQFVINSHEIFDFIIKRANRSYEEMFILVNKLDQLSLEKKRQLTIPLIKEI,-1.22
8,HMLPDLQESIDELLNIVDQRLNTSFEELVSGVNTTEKAIAFFLALLETIKWGFIKAEQTNNENKINIEKNY,-1.4
9,HMLPDPIYEAFMMASDLGIVVRNGPQYAYPDKETGEVLYKALGREKFLQLMKDNDGLLTSIETEIRSM,-1.3
10,HMLPKTVTLIDPVSGVAKTVTWVPALTLYSARRKAGLNRVPNTATIDRGGRELTGKRGSTLQPGDVVRW,≥ 0.43
11,HMLPPLGDQELELLRFITESAPITVREAAESYGKDRGLARTTVLTMMERLRAKGYLTRSESGAANEYSP,-0.148
12,HMLPPVFLTIDANENVIVRKDGEPVQTLNKFELGAFARSQAENSAEQPVVLAADKSIKYEVVMEVI,-0.378
13,HMLPRLVLSPGTEVLATVMGKYENGMSLVKISSHLFAMDLPSRVQVGDSLRMTFLHQDARPTFALA,-0.142
14,HMLPSDLDEGNRRRQLIEGAARLFRAKGFDGTSTRDIAAAAGMRSGSPFYHFDSKNALLYVVVQEGM,-0.115
15,HMLPSWLPTDAWEAFLEARVAMKARPTERAKGLLLGELSKLVSQGQDARAVLEQSVQRGWRGLFPVK,0.0676
16,HMLPSWPGVSEFEVARLLRRGRARGSLTLDEVIDVVRDAELTSELIAGIRSSLRAEGIDFEET,-1.85
17,HMLPTLSLSVKIYKGEGDIALDLEEMVKAFDQLNFGSYPFSEKGVHGTNIVIRGNDKKHMEEAEDKVRSLT,-0.959
18,HMLPVDALFAQHPALIVTLGQTEKLKHGAAIRDWHFADGTYRVYSETGEFLLLGTVKGQILTTVKSFFE,-0.828
19,HMLQARKFTHIQGYEFEAEFLRTNGEFVELQDPQGRKKWFPISNFIQDDKDFIKEQAGNLSS,-0.903
20,HMLQEFTLELATAVVQEFRDQPGALINALHKLQETFGYVDEAAMPVLARLFNLSRAEVHGVASFYHDFRRS,-1.35
21,HMLQEHVLEIRHPSWNDAFRIIGHDGWRTQTGAHAAILSYDEEELNIKWDSWGYERFIRDEKGIFRLAA,-0.165
22,HMLQESDPEALRGIVKSVLVDHAAVAEEYRAGKQSVLQFLVGQGMKASKGAGNPGLIRDLMLEEL,-0.184
23,HMLQLSDAISRVESFLQGQNRNLAFSIDENTERSVVTVLDSDTGDVIRQIPSEELLVLAKRIQELQQD,-1.19
24,HMLQMSDSSALEAILDEVLGSEMGQKALSDIEAGNMKAMGFIIGQSMKLSKGQANPQIINKLLQQRLK,-0.487
25,HMLQNLGFKPDLEIRHFPGIVLPDIHRSKKTISLLYTLLAGDIKKLPENEINYKDSKIISSYLWTLLRYH,0.22

row,Sequence,soluble fraction (log2)
1,HMLQSGSDYLIEQVRMYTATGQREYMDNYFEELNTTRRRENALEYFAEHYGDNDAFTLLKSAMTTSQN,-0.691
2,HMLQVRRILQLLADGYSKRQISQQTAVSRNTIDSYEDRFHLTGKSYQELLSMEDGELSGIVYP,0.321
3,HMLQVSDENFVVELVQKVLLDNPSSVQEYKNGKESVLQFLIGQAMKASKGTANPQIVKEIMLKLL,-0.443
4,HMLQYSQEIEEAQKILQNLGLYKGEIDGINGVNTKSAIKEFQRKSGLIIDGILGPNTTSALSKGAESYITV,0.0398
5,HMLRISEEVWALVEKTLREDWSPEQVSGKLKASGISVSHERIYQHIYADKRVGGTLWTHLRR,-0.767
6,HMLRLLEIIAGNEVSKEINSQVIKYYKALKNKKIEEINNLTPSYNKLIISFDLKKKNFREMKKIIEDISIN,-0.436
7,HMLRPEEMIYHEMLDAILDRRLEPGMKLVEEDLAKTFGVSRARIRATFLQLAHDKLINLVPNRGAFVAEP,-0.561
8,HMLRRNQVQSQVIPRENGSYVVELQLRDDVDSILRLELTAATEAMARDLADRFRQDPEGVYTRLLSALY,-1.57
9,HMLRTEYLTVNYAKASEVAELVTASGFLSSRGSITVDERTNTLLLQDTATNIDEVRFMLEQLD,-0.868
10,HMLSADLLDKIQRIDSLEQQGKYAQAEKEARALLSDPSITPSERASVQNILSSIARKKAAQAQ,0.0475
11,HMLSAGTTEQRLAMLQYQWEKQSETYSALGPNNGVVTLGQIRNTMAKIAELAGFKDAAQFWMPVPMDYDV,-0.491
12,HMLSAPMPGTVLEVHVKEGQRVREGQTLVVMEAMKMEHRVQAPRAGVVTKLHYSEGDRVDVGAILVEIG,-1.31
13,HMLSAQEIPVEDIATRDFVLAEDVVSAKKVLLLPKGVDLSWFGSAKKRLVQRLKSEGVTHIRVFA,0.008
14,HMLSFSEAERAVLSLLNRRPDLSAKALASELAVSARTVERYLQSLQQKGKLLRVGAKKGGYWQV,0.115
15,HMLSGNLTADAHVHRGLQALSDGRNEDALVDFTKATEVQADFAEAWNKRATVNYLLGRYDAAVLDIQKTLE,0.0958
16,HMLSLDDAAFERYDLTMREREVLLLLLNRLTYEEIAERLFISTNTVKTHVGNVYKKTGVSSRKELVSK,-0.953
17,HMLSLGQQIRNHVLSRIESGEWPEGSRIPSEAKLVELLGASRMTIHIALRDLSAEGVLLRKQGAGTFVAPR,-0.553
18,HMLSRKEVFTVSQKDIEKNPIGAADKFFDGHVGIHKLLVVDEEDRLRGLFTLSDIERINDEQ,-0.0114
19,HMLSRTYDSSGPDVKIRGTAQTVADKYMSLARDAQSSGDRVMAENYLQHAEHYNRIIAAAQAQ,0.221
20,HMLSSEQQQKLDSLSRKELEVAELVSHGATNKMIARTMNITERTVKAHLTAIFQKMNIPDRLSLAIFFRDL,0.0769
21,HMLSSNEIKEIFALFDKSNRGQVATSELGTLVRALNLNPTETEITDMQSKVDPKGQGSFTLDVLEKVVQD,-0.929
22,HMLSVNREQVEQSLKQEWGFDYDKNLRAAQRAIDVYGDDDLKLLLNGPTGNDPAIVKLFARLGGEVTEE,-0.813
23,HMLSYIELTVDNTSKASYIMTDKMKINNFKIIGNNTIRVYENKVSPQDISRTLSMNNVSIEALGRKS,-0.253
24,HMLSYNINEESKSSIMNVNVLKNNFASIDVEKLQNIIFTTFKKYNYYLNDFSSMNLLLHLLIIVDREL,-0.172
25,HMLTEKEEEVMQILWDNGPLFVREILEFYPDPKPHYNTVSTVIRVLEEKNFASHKAYGNTYQYFP,0.18

# Reference: the domain aggregation screens of Martell et al. (2025)
